T1: FcγRIIb extracellular domain with C-terminal His tag (human, UniProt P31994 43-217)
T1 construct: extracellular domain; soluble receptor expressed in FreeStyle293 cells, used as analyte in Biacore; also called FcgRIIb; 2b; not shown: His tag attached to the C terminus
T1 sequence (looked up): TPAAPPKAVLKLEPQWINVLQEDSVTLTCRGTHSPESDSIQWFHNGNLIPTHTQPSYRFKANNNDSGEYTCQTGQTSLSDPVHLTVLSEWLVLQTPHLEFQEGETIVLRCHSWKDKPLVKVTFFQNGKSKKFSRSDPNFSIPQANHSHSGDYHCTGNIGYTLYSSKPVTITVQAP

T2: FcγRIIa H (human, UniProt P12318 34-217)
T2 construct: extracellular domain; also called FcγRIIa type H; 2aH
T2 sequence (looked up): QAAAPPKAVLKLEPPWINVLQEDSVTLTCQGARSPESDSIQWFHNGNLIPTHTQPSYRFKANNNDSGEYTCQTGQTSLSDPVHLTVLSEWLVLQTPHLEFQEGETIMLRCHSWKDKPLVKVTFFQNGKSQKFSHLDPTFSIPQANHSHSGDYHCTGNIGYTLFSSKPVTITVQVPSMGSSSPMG

T3: FcγRIIb (human, UniProt P31994 43-217)
T3 construct: extracellular domain; also called 2b
T3 sequence (looked up): T1 sequence (looked up)

B1: GpH7-A5/GpH7-B3 variant S324_14T/GpL16-k0 (antibody, human IgG1, kappa)
heavy 1: not shown
heavy 2: not shown
light: DIVMTQSPLSLPVTPGEPASISCQASESLVHSNRNTYLHWYLQKPGQSPQLLIYKVSNRFSGVPDRFSGSGSGTDFTLKISRVEAEDVGVYYCSQNTHVPPTFGQGTKVEIERTVAAPSVFIFPPSDEQLKSGTASVVCLLNNFYPREAKVQWKVDNALQSGNSQESVTEQDSKDSTYSLSSTLTLSKADYEKHKVYACEVTHQGLSSPVTKSFNRGEC
notes: heterodimerized anti-glypican-3 IgG1; alteration in the GpH7-B3 chain only; also called He Ab
B2: GpH7-A5/GpH7-B3 variant S324_18N/GpL16-k0 (antibody, human IgG1, kappa)
heavy 1: not shown
heavy 2: not shown
light: B1 light
notes: as for B1
B3: GpH7-A5/GpH7-B3 variant S324_20W/GpL16-k0 (antibody, human IgG1, kappa)
heavy 1: not shown
heavy 2: not shown
light: B1 light
notes: as for B1
B4: GpH7-A5/GpH7-B3 variant S324_16H/GpL16-k0 (antibody, human IgG1, kappa)
heavy 1: not shown
heavy 2: not shown
light: B1 light
notes: as for B1
B5: GpH7-A5/GpH7-B3 variant S324_19Q/GpL16-k0 (antibody, human IgG1, kappa)
heavy 1: not shown
heavy 2: not shown
light: B1 light
notes: as for B1
B6: GpH7-A5/GpH7-B3 variant S324_15Y/GpL16-k0 (antibody, human IgG1, kappa)
heavy 1: not shown
heavy 2: not shown
light: B1 light
notes: as for B1
B7: GpH7-A5/GpH7-B3 variant A327_07I/GpL16-k0 (antibody, human IgG1, kappa)
heavy 1: not shown
heavy 2: not shown
light: B1 light
notes: heterodimerized IgG1, mutation in one H chain only; also called He Ab
B8: GpH7-A5/GpH7-B3 variant P331_04F/GpL16-k0 (antibody, human IgG1, kappa)
heavy 1: not shown
heavy 2: not shown
light: B1 light
notes: as for B7
B9: GpH7-A5/GpH7-B3 variant L328_07I/GpL16-k0 (antibody, human IgG1, kappa)
heavy 1: not shown
heavy 2: not shown
light: B1 light
notes: as for B7
B10: GpH7-A5/GpH7-B3 variant N325_01G/GpL16-k0 (antibody, human IgG1, kappa)
heavy 1: not shown
heavy 2: not shown
light: B1 light
notes: as for B7
B11: GpH7-A5/GpH7-B3 variant L328_19Q/GpL16-k0 (antibody, human IgG1, kappa)
heavy 1: not shown
heavy 2: not shown
light: B1 light
notes: as for B7
B12: GpH7-A5/GpH7-B3 variant A327_18N/GpL16-k0 (antibody, human IgG1, kappa)
heavy 1: not shown
heavy 2: not shown
light: B1 light
notes: as for B7
B13: GpH7-A5/GpH7-B3 variant N325_20W/GpL16-k0 (antibody, human IgG1, kappa)
heavy 1: not shown
heavy 2: not shown
light: B1 light
notes: as for B7
B14: GpH7-A5/GpH7-B3 variant A330_05P/GpL16-k0 (antibody, human IgG1, kappa)
heavy 1: not shown
heavy 2: not shown
light: B1 light
notes: as for B7
B15: GpH7-A5/GpH7-B3 variant N325_09D/GpL16-k0 (antibody, human IgG1, kappa)
heavy 1: not shown
heavy 2: not shown
light: B1 light
notes: as for B7
B16: GpH7-A5/GpH7-B3 variant L328_15Y/GpL16-k0 (antibody, human IgG1, kappa)
heavy 1: not shown
heavy 2: not shown
light: B1 light
notes: as for B7
B17: GpH7-A5/GpH7-B3 variant L328_09D/GpL16-k0 (antibody, human IgG1, kappa)
heavy 1: not shown
heavy 2: not shown
light: B1 light
notes: as for B7
B18: GpH7-A5/GpH7-B3 variant A330_01G/GpL16-k0 (antibody, human IgG1, kappa)
heavy 1: not shown
heavy 2: not shown
light: B1 light
notes: as for B7
B19: GpH7-A5/GpH7-B3 variant N325_08L/GpL16-k0 (antibody, human IgG1, kappa)
heavy 1: not shown
heavy 2: not shown
light: B1 light
notes: as for B7
B20: GpH7-A5/GpH7-B3 variant K334_12R/GpL16-k0 (antibody, human IgG1, kappa)
heavy 1: not shown
heavy 2: not shown
light: B1 light
notes: as for B7
B21: GpH7-A5/GpH7-B3 variant P331_07I/GpL16-k0 (antibody, human IgG1, kappa)
heavy 1: not shown
heavy 2: not shown
light: B1 light
notes: as for B7

biological target: T1, FcγRIIb extracellular domain with …; assay: SPR (Biacore), antibody captured on antigen peptide chip, FcγR as analyte; relative binding

Row | He/Con_2b | Binder
1 | 88.4 % of control GpH7-A5/GpH7-B3/GpL16-k0 (=100) | B1
2 | 81.1 % of control GpH7-A5/GpH7-B3/GpL16-k0 (=100) | B2
3 | 87.5 % of control GpH7-A5/GpH7-B3/GpL16-k0 (=100) | B3
4 | 83.5 % of control GpH7-A5/GpH7-B3/GpL16-k0 (=100) | B4
5 | 66.8 % of control GpH7-A5/GpH7-B3/GpL16-k0 (=100) | B5
6 | 88.2 % of control GpH7-A5/GpH7-B3/GpL16-k0 (=100) | B6

biological target: T4, FcγRIa extracellular domain with C-terminal His tag (human, UniProt P12314 16-292); assay: as above
T4 construct: extracellular domain; soluble receptor expressed in FreeStyle293 cells, used as analyte in Biacore; also called FcgRI; 1a; not shown: His tag attached to the C terminus
T4 sequence (P12314 16-292): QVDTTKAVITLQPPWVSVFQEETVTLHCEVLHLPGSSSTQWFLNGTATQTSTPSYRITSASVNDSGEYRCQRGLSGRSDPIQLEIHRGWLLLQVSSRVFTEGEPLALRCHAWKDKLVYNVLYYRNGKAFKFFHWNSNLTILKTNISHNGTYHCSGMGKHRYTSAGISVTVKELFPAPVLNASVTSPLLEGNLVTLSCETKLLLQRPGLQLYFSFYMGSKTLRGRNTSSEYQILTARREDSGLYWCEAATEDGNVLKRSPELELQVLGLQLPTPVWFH

Row | He/Con_1a | Binder
7 | 121 % of control GpH7-A5/GpH7-B3/GpL16-k0 (=100) | B1
8 | 116 % of control GpH7-A5/GpH7-B3/GpL16-k0 (=100) | B2
9 | 114 % of control GpH7-A5/GpH7-B3/GpL16-k0 (=100) | B3
10 | 113 % of control GpH7-A5/GpH7-B3/GpL16-k0 (=100) | B4
11 | 112 % of control GpH7-A5/GpH7-B3/GpL16-k0 (=100) | B5
12 | 114 % of control GpH7-A5/GpH7-B3/GpL16-k0 (=100) | B6

biological target: T2, FcγRIIa H; assay: SPR (Biacore), relative binding vs GpH7-A5/GpH7-B3/GpL16-k0
Procedure: (§1) The heterodimerized antibodies He Abs in which one of the H chains was introduced with an alteration were assayed for their binding activities to each activating FcγR and inhibitory FcγR according to the method described in Example 4. […] The activating FcγRs in FIGS. 26, 27, 28, and 29 are FcγRIa, FcγRIIa (R), FcγRIIa (H), and FcγRIIIa, respectively.
(§2) Analysis of interaction between objective antibody and the FcγR was carried out using Biacore T100 (GE Healthcare). HBS-EP+ (GE Healthcare) was used as the running buffer, and the measurement temperature was set to 25° C. Chips produced by immobilizing the antigen peptide by the amine coupling method to a Series S Sencor Chip CM5 (GE Healthcare), or alternatively, chips produced by allowing preliminarily biotinylated antigen peptides to interact with and immobilize onto a Series S Sensor Chip SA (certified) (GE Healthcare) were used. Antibodies of interest were captured onto an antigen peptide-immobilized chip, and allowed to interact to each FcγR diluted with running buffer. To regenerate and repeatedly use the chip, the antibodies captured on the chip were washed off by reacting 10 mM glycine-HCl, pH 1.5.

Row | He/Con_2aH | Binder
13 | 58.4 % of control He Ab (=100) | B7
14 | 84.7 % of control He Ab (=100) | B8
15 | 93.9 % of control He Ab (=100) | B9
16 | 56.8 % of control He Ab (=100) | B10
17 | 86.8 % of control He Ab (=100) | B11
18 | 66.8 % of control He Ab (=100) | B12
19 | 47.2 % of control He Ab (=100) | B13
20 | 85.7 % of control He Ab (=100) | B14
21 | 53.1 % of control He Ab (=100) | B15
22 | 90 % of control He Ab (=100) | B16
23 | 58.5 % of control He Ab (=100) | B17
24 | 99 % of control He Ab (=100) | B18
25 | 52 % of control He Ab (=100) | B19
26 | 99.7 % of control He Ab (=100) | B20
27 | 77.4 % of control He Ab (=100) | B21

biological target: T3, FcγRIIb; assay: as above
Procedure: as §1, §2

Row | He/Con_2b | Binder
28 | 127 % of control He Ab (=100) | B7
29 | 110 % of control He Ab (=100) | B8
30 | 160 % of control He Ab (=100) | B9
31 | 101 % of control He Ab (=100) | B10
32 | 105 % of control He Ab (=100) | B11
33 | 113 % of control He Ab (=100) | B12
34 | 169 % of control He Ab (=100) | B13
35 | 137 % of control He Ab (=100) | B14
36 | 124 % of control He Ab (=100) | B15
37 | 193 % of control He Ab (=100) | B16
38 | 199 % of control He Ab (=100) | B17
39 | 104 % of control He Ab (=100) | B18
40 | 197 % of control He Ab (=100) | B19
41 | 111 % of control He Ab (=100) | B20
42 | 114 % of control He Ab (=100) | B21
